Assay [1] has as its target Recombinant human GM-CSF (expression source not stated) (human) (UniProt P04141). The assay can be described thus: competition ELISA; plate coated with 50 ng/well recombinant GM-CSF; unlabeled antibody titrated together with 50 nM biotinylated Ab2; competition for 18 hrs; neutravidin-HRP detection, A450. In general terms: In an ELISA, binding on a coated surface is turned into a signal by an enzyme label.

For assay [2] the target is unchanged. In words: competition ELISA; plate coated with 50 ng/well recombinant GM-CSF; unlabeled antibody titrated together with 50 nM biotinylated Ab2; competition for 1 hr; neutravidin-HRP detection, A450.

UniProt P04141, sequence (P04141 18-144 limits assumed): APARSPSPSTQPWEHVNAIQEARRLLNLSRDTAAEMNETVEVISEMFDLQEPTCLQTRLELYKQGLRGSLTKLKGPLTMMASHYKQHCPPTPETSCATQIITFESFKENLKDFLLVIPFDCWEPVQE

In the case of “Ab2, chimeric IgG1k antibody having variable regions from the mouse antibody LMM102”, the IC50 – broadly, the point on the concentration scale where inhibition reaches its midpoint – came to 94 nM in assay [1] and 122 nM in assay [2].

These data come from US20210322547A1.
